Reference: article PMC5714165 (Nucleic Acids Research, 2017)

T1: eIF2Bβ (human, UniProt P49770 1-351)
T1 sequence: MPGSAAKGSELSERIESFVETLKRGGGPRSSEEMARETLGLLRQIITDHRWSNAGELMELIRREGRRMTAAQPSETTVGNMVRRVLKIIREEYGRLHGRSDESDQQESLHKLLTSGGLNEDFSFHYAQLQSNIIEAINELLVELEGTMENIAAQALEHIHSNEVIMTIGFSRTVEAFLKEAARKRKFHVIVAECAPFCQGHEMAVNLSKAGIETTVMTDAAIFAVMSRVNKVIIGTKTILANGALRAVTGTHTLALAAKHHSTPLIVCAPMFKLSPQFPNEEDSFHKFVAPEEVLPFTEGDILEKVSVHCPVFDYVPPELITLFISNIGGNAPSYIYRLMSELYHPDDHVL

B1: eIF2Bα_(I301E/L305D) mutant (designated as eIF2Bα in the paper) (natural protein)
chain: MDDKELIEYFKSQMKEDPDMASAVAAIRTLLEFLKRDKGETIQGLRANLTSAIETLCGVDSSVAVSSGGELFLRFISLASLEYSDYSKCKKIMIERGELFLRRISLSRNKIADLCHTFIKDGATILTHAYSRVVLRVLEAAVAAKKRFSVYVTESQPDLSGKKMAKALCHLNVPVTVVLDAAVGYIMEKADLVIVGAEGVVENGGIINKIGTNQMAVCAKAQNKPFYVVAESFKFVRLFPLNQQDVPDKFKYKADTLKVAQTGQDLKEEHPWVDYTAPSLITLLFTDLGVLTPSAVSDELEKLYD

Columns and labels:
[1] = target: eIF2α-NTD_(S51D) (phosphomimetic N-terminal domain of eIF2α, aa 1–184) (human); test: fluorescence polarisation
eIF2Bβ = target: T1, eIF2Bβ; test: SEC

Row | Molecule | fold higher affinity than for WT eIF2α-NTD [1] [fold] | binding result (eIF2Bβ)
1 | eIF2Breg (eIF2B regulatory subcomplex of eIF2Bα, β and δ), reconstituted from individual subunits (from UniProt Q14232;P49770;Q9UI10) | < 2 | –
2 | B1 | – | binds
